Tested on: Bacillus subtilis DB104 (SP-AmyQ fusion secretion)
Experiment: AmyQ secretion efficiency, weighted average sort bin (1 = best secretion, 10 = worst) (bin number (weighted average, 1-10)); higher = lower secretion efficiency
Outline: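 Occupied alginate beads were sorted by large-particle flow cytometry into 10 equally populated bins according to green/red fluorescence ratio. Each bead (~65 nL) held fluorescein-starch and about 0.3 cells of a B. subtilis DB104 library expressing mature AmyQ fused to designed signal peptides from the amyE locus, and beads were grown about 13 h at room temperature and stained with nile red before sorting. Bin amplicons were Illumina-sequenced, and the secretion score is the read-frequency-weighted average bin number, normalised to beads per bin, excluding low-abundance sequences.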

Row | Sequence | AmyQ secretion efficiency
1 | MRMLWRGQKSCGTYLTLAPCAQAAEP | 7.51
2 | MKRKKRGSKRTSALSLGLLVSAPTASFAAES | 6.79
3 | MKSSSSALLLLLFAFEPSASGKKL | 7.85
4 | MKWMCSICCAAVLLAGGAAQCEAV | 3.23
5 | MKKWLIIAVSLAIAIVLFRRKKGRAKAAGM | 5.92
6 | MKRIRIPMTLKRKRKRTIAPLSFASAEEN | 8.12
7 | MKKTIMSFVAVAALSTTAFGAHASYKEI | 7
8 | MRFTKVRRKKSVLGLAAVFPLTAQAEKA | 7.85
9 | MNKLKRLSMLTVMIASVFIFSSHALAAQE | 1.11
10 | MKKFIVFICFFVLFSVHPIAAAAADS | 4.38
11 | MHLIRAAGAVCLAVVLIAGCRFNEDQHQWEGENT | 5.73
12 | MTMLRKIIGWILLLCIIPLFAFTVIMSGKEV | 7.42
13 | MNRLFMKASLVLFAVVFVFAVKGAPAKAETH | 1.75
14 | MKWMCSICCAAVLLAGGAHQAEAV | 2.89
15 | MGLGKKLSVAVAASFMSLSISLPGGQAAEG | 1.55
16 | MFKFKKNFLVGLSAALMSISLFSATASAADD | 3.08
17 | MKWMCSICCAAVLLAGGAAQVEAV | 2.92
18 | MKKWMITIAMLILAGIALFVFISPPPFFTAVPSTVLKSHKT | 6.23
19 | MNLRKILLSSALSLGMLVSAAPYLATSS | 5.88
20 | MFNRLFRVCFLAALIMAFRKKNSVYAQKP | 7.12
21 | MKNMSCKLVVSVTLFFSFLTIGPLSHAQNS | 2.11
22 | MKKWKYRRRVVLVLSIAGIGGFSVHAASS | 7.42
23 | MNKLKRLSMLTVMIASVFIFSSHALMAQY | 7.08
24 | MKLRKVLTGSVLSLGLLVSASPAFATSD | 2.17
25 | MRKSLITLGLASVIGTSSFLIPFTSKTHSAETL | 6.74
26 | MKKGIIRFLLVSFVLFFALLAFVVISFFSTGITGVQAAPA | 2.07
27 | MKKAFILSAAAAVGLFTFTSVVGASAKEL | 4.32

Row | Sequence | AmyQ secretion efficiency
28 | MKKKIVAGLAVSAVVDEDEEAAPAEAKTI | 5.93
29 | MFRMIVRMTLPLLIVCLAFSSFSASARAASE | 1.61
30 | MRKKCSSMSFTSVCLWILVLLLSCLSGKSAYAATS | 3
31 | MKKRITYSTSYQQTRVAFAFTDSSKAKAAEA | 6.55
32 | MKKMLGKSGKQTTTGVFFAVVVKDVFAAGL | 6.37
33 | MRSYIKVLTMCFLGLILFVPTKLADNS | 5.85
34 | MKTKTLFIFSAILTLSIRKPNRTFAQTA | 6.8
35 | MKRSISIFITCLLITLLTMGGMIASPTSAAGT | 2.97
36 | MKQIMIFLMIFMLLAMTGQTALAKDV | 4.05
37 | MIKKCSVCLWILVLLLSCLSGKSAYAATS | 2.24
38 | MKVPKTMLKRTAAGLLLSLTATSVSAHYV | 4.94
39 | MIAYFGKCRKRRTIMFLGVLFGMQQANHG | 4.01
40 | MRFTKVVGFLSVLGLAAVFPLTAQAAPK | 1.91
41 | MKLKSKLLLSCLALSTVFVRKRIANAPTH | 6.91
42 | MTTTAWFLPLVCVLLISGWLAPAASASAQTT | 2.09
43 | MKVKRKRLLLLLFAFEPSASGKKL | 7.56
44 | MKKQIITATTAVVLGSTLFAGAASMQSI | 3.83
45 | MKRFSTAYLLLGILCSAAVFLIGAPSRALNAEV | 5.97
46 | MKSKGSIMACLILFSFTITEDEEEETISAFSN | 6.65
47 | MKKKRMSFVAVAALSTTAFGAHASAKEI | 4.12
48 | MKLWMRKTLVVLFTIVTFGLVSPPAALMQDKP | 2.54
49 | MNFMFTVVSALSISALALSVSGVASAHEI | 3.15
50 | MKRLLSTLLIGIMLLTFAPSSFAKQD | 2.65
51 | MKVPKTMLLSTAAGLLLSLTATSTSAHYV | 4.19
52 | MKSKWMSGLLLVAVGFSFTQVMEHAGET | 7.11
53 | MTRTGAIIAAVIVIAALITFNVRNASPG | 7.74

From the supplement of paper PMC9942255
